In experiment [1] the target is human TrkC (full-length TrkC receptor) (human) (UniProt Q16288). Briefly: flow cytometry on HEK293 cells stably expressing TrkC-FL, background controls. A general note: Flow cytometry measures light scatter and fluorescence of single cells or particles in a stream.
The target in a further experiment is human TrkB (human) (UniProt Q16620). Briefly: cell-based or functional assay.
The target of experiment [2] is rat TrkB (on rat spiral ganglion neurons) (rat) (UniProt Q63604). Briefly: cell-based or functional assay.
UniProt Q63604, sequence (Q63604 32-821): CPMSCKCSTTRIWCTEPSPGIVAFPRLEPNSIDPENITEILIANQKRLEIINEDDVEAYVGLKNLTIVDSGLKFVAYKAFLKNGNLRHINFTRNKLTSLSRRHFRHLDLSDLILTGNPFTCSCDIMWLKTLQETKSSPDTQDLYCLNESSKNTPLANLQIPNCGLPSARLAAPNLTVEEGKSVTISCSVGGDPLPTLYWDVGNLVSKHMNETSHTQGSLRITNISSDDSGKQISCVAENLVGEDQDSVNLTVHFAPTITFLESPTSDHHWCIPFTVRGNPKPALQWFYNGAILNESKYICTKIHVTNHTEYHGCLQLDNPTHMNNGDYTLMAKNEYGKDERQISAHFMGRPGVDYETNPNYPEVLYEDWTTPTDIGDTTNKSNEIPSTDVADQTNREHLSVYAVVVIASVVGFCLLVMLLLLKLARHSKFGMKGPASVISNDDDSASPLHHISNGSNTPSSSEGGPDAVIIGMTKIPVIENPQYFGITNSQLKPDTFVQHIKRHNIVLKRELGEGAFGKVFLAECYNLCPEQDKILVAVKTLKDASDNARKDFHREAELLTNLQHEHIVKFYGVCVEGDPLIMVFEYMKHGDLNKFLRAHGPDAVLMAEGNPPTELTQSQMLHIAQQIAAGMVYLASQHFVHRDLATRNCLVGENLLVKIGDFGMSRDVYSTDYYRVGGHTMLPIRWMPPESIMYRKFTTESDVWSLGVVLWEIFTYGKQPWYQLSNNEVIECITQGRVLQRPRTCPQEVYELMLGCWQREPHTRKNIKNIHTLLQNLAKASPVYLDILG
The target in experiment [3] is human TrkC (full-length TrkC receptor) (human) (UniProt Q16288). Briefly: cell-based or functional assay.
The target in experiment [4] is rat TrkC (on rat spiral ganglion neurons) (rat) (UniProt Q03351). Briefly: cell-based or functional assay.
UniProt Q03351, sequence (Q03351 32-864): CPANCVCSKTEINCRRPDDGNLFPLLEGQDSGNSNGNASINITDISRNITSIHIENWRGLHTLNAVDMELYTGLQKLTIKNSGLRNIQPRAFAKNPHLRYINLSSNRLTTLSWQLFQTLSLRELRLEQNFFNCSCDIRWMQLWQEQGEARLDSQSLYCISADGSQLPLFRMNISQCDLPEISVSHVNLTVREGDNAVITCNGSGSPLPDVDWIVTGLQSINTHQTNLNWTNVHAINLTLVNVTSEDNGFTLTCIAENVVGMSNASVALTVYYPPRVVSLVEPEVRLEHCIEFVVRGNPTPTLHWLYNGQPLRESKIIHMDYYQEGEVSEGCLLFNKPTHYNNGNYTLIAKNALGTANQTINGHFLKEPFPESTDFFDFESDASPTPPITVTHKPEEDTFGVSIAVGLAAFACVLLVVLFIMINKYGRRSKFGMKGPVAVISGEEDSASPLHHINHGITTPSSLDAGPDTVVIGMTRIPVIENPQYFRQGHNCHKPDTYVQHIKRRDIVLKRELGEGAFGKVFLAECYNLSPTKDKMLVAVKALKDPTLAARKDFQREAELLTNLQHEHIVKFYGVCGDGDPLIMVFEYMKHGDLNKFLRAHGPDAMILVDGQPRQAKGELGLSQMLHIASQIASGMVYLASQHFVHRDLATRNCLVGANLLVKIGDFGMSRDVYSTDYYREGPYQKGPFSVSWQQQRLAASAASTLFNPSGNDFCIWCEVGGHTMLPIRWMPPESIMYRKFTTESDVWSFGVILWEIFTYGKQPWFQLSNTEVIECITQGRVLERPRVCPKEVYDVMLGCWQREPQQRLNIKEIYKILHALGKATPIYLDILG

UniProt Q16288, sequence (Q16288 32-839): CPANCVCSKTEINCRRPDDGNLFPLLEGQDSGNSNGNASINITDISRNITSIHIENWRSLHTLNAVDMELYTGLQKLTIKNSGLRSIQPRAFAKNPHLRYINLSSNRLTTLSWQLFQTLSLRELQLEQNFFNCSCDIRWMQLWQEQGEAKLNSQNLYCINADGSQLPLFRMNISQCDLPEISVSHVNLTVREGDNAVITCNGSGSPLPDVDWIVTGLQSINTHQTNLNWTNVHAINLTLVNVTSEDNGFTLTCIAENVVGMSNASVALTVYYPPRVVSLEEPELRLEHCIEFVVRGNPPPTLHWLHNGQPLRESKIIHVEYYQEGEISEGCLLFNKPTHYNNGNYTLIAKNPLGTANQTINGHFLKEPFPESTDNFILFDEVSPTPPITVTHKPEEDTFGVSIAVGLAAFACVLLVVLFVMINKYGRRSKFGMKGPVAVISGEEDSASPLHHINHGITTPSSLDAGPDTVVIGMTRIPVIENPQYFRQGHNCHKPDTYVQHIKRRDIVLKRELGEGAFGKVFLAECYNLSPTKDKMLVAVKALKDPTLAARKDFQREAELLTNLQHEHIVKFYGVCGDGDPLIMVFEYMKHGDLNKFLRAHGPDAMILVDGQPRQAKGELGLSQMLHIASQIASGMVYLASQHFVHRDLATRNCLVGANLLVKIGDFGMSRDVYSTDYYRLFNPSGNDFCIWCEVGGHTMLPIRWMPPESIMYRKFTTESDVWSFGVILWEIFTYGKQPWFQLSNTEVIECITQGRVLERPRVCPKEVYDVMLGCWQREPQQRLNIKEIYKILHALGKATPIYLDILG
UniProt Q16620, sequence (Q16620 32-822): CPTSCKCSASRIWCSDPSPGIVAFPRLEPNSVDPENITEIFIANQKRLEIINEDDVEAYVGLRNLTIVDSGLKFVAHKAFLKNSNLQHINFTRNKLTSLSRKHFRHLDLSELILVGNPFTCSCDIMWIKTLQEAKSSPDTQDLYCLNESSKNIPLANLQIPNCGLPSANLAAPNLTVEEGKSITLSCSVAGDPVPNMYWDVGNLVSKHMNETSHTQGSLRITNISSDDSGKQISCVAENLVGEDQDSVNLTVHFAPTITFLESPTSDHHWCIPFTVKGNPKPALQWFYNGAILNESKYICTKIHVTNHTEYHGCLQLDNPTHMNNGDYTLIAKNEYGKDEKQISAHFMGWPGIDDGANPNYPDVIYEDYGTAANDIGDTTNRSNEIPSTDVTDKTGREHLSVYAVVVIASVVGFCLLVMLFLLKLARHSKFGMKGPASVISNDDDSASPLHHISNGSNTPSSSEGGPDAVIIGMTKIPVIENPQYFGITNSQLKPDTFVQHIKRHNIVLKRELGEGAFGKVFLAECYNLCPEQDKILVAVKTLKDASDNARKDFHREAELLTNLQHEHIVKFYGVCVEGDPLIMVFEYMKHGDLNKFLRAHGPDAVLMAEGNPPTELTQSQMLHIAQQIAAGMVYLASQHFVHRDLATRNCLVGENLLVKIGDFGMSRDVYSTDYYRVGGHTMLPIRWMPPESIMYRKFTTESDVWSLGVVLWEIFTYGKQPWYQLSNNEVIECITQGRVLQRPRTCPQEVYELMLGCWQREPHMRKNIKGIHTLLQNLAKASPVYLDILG

For “control mIgG (irrelevant mouse IgG, isotype-matched controls) (antibody)”, the mean channel fluorescence (mean channel fluorescence) in experiment [1] is 10.

B1: brain-derived neurotrophic factor (BDNF) (ligand, UniProt P23560 129-247, looked up)
chain: HSDPARRGELSVCDSISEWVTAADKKTAVDMSGGTVTVLEKVPVSKGQLKQYFYETKCNPMGYTKEGCRGIDKRHWNSQCRTTQSYVRALTMDSKKRIGWRFIRIDTSCVCTLTIKRGR
In the experiment with human TrkB (human), B1 gave an EC50 of p-ERK response in HEK293 cells expressing human TrkB (AlphaLisa) of 0.3 nM and a Maximal Effect % of p-ERK response in HEK293 cells expressing human TrkB (relative to 10 nM BDNF) of 100%. In experiment [2], the rat spiral ganglion neuron survival relative to 1 nM NT-3 (100%) came to 92%.

B2: neurotrophin-3 (NT-3) (ligand)
chain: YAEHKSHRGEYSVCDSESLWVTDKSSAIDIRGHQVTVLGEIKTGNSPVKQYFYETRCKEARPVKNGCRGIDDKHWNSQCKTSQTYVRALTSENNKLVGWRWIRIDTSCVCALSRKIGRT
As to B2, the EC50 of p-ERK response in 3T3 cells expressing human TrkC (AlphaLisa) in experiment [3] was 0.3 nM. In addition, the surviving rat spiral ganglion neurons per well, 4 days in culture in experiment [4] was 10 to 20 neurons/well.

The record behind these values is patent US20200190201A1.
